Assay results from PMC10999833 (Molecular Biology and Evolution, 2024).
“And” between values parts separate entries of the source, which are not always exact repeats. Equal entries are not always repeated.

Target: the molecule itself
Experiment: SEC-MALS

B1: ancestor MBP-His6-J^981–1132 (wild-type bacteriophage λ J, C-terminal 152 amino acids, MBP-tagged) (domain or fragment, UniProt P03749 981-1132, looked up)
chain: NCTINGTLRAEKIVGDIVKAASAAFPRQRESSVDWPSGTRTVTVTDDHPFDRQIVVLPLTFRGSKRTVSGRTTYSMCYLKVLMNGAVIYDGAANEAVQVFSRIVDMPAGRGNVILTFTLTSTRHSADIPPYTFASDVQVMVIKKQALGISVV
Question: With B1 as the protein, how does the “stoichiometry N” value read?
Answer: 3 and 2
